The assay concerns intracellular proteome of ENR+CD and ENR organoids. The assay can be described thus: LC-MS/MS TMT proteomics of ENR+CD versus ENR organoids. The format is cell-based, C57BL/6 mice. The note with it: for Average logFC / M1-1 Log2 Median Normalized / M1-2 Log2 Median Normalized / M2-1 Log2 Median Normalized / M2-2 Log2 Median Normalized: protein abundance, ENR+CD versus ENR organoids; for Average logFC: aggregate of the four sample pairs; for M1-1 Log2 Median Normalized: replicate M1-1; for M1-1 Log2 Median Normalized / M1-2 Log2 Median Normalized / M2-1 Log2 Median Normalized / M2-2 Log2 Median Normalized: log2 ratio; for M1-2 Log2 Median Normalized: replicate M1-2; for M2-1 Log2 Median Normalized: replicate M2-1; for M2-2 Log2 Median Normalized: replicate M2-2; for change: up = enriched in ENR+CD, down = enriched in ENR, FDR<0.05 and log fold change cut-off.

B1: Q3UA16 (protein, UniProt Q3UA16 1-226, looked up)
chain: MGEDELALLNQSINEFGDKFRNRLDDNHSQVLGLRDAFKDSMKAFSEKMSLKLKEEERMTEMILEYKNQLCKQNKLIQEKKENVLKMIAEVKGKEQESEELTAKIQELKEEYARKRETISTANKANEERLKGLQKSADLYRDYLGLEIRKIHGNKLQFIFTSIDPKNPESPYMFSMSINEAKEYEVYDSSPHLECLAEFQEKVRKTNNFSAFLANIRKAFIAKVHN
modifications: full-length
In the case of B1, the “Average logFC” value was −1.826, the “M1-1 Log2 Median Normalized” value was −1.924, the “M1-2 Log2 Median Normalized” value is listed as −0.747 and the “M2-1 Log2 Median Normalized” value is −1.8235. For the same molecule, the “M2-2 Log2 Median Normalized” value was −2.598 and the change result was “down”.

B2: Q3UHD3 (protein, UniProt Q3UHD3 1-1353, looked up)
chain: MSVPLAPKKSCFGQLRDHREGAKNNNESILRTGDTNANQIMLEVSSSCDEAKSRDLDDELGNSNLSRPQYHSHFQKEPLHLQGFGKGSQAGSTSQRESQASLTVHRQLSEEHAVKRGALQAPQCVQGPSLSSWRNAVGQASPEASAKKDAEIPRHIPKDKLAKTLDNEELKRASSCSAAAGSVPPTDLQPVQLDTLGPQDHVPARGEGPQRTPASHSPGKGFSPGEGTSEGNSVYLPKPSTSEAKGSSPSDTKMEGPHGLDVYNERITHAELTPSSASASKENPGLRHPEVCLGQGTGKSKVELKSVQPRNEEGLTSAQAQGPGCHEERSMSPVERQELLEKAYREATSQGNSSHRQLGVRRGSSLEEMTGVSAGVEGSQQATPTLSAAPAGEAGTRLTGKMSAGVGRMARETASGQTAPDVGQAAPVRRDPTESVPSEVSGEERRLGSGNSGSTKLLASGPSAGGSRTDTSGLLSPRGSNLEARKGKEMVAENRNLLENAAQTDNTPAGVDSAFSTPAPLLHPETTVNSSHHPTPPGSSSQELGVFSGDTGSPSVASPPTDGGQVLNTSPKVPDRTTCSSGIPKPPTHPKDTPSSQEAREKLETEKMEERAEAKPILMPKPKHVRPKIITYIRRNPQALSQGDASLVPVGLPYAPPTCGMPLPQEEKAASRDLQPSANMYEKLKPDLQKPRVFPSGLMVSGIKPPAHHFSQMSEKFLQEVADHPGKEEFCSPPYTHYEVPPTFYRSAMLLKPQLGLGAMSRLPSTKSRILIASQRSSASAIHPPGSLTTAASFYGSDPSDLKKASNSNAAKASLPKSGLRPPGYSRLPAAKLAAFGFVRSSSISAVPSSQSLDSVQPEQSRPVTRSTFGNEEQAPLKQALPSKDTPKGAGRAAPASSSNATTPRRSLLPAPKSTSTPAGAKKELQKDPEAKKPAVSSPKRTASAATKPHSPGYPKQRTSAPRNEFPPKPDLQAREAERQLAQRLRDRCEWQARQLGLARRELKKAIQGFDALAVSTKHFFGKSERALAKEKELSIELANIRDEVAFNTAKCEKLQKEKETLERRFEEELRRLGWQQQAEVQELQERLQQQFQAESARLQAEHQDQLLRMRCQHQEQVEDITASHEAALLEMENNHTVAITILQDDHDHKVQELMSTHEFEKKELEENFEKLRLTLQDQVDTLTFQSQSLRDRARRFEEALRKTTEEQLEIALAPYQHLEEDMQSLKQVLEMKNQQIHLQEKKIIELEKLVEKNIILEERIQVLQQQNEDLKARIDQNTVVTRQLSEENANLQEYVEKETQEKKRLSRTNEELLWKLQTGDPTSPIKLSPTSPVYRGSSSGPSSPARVSTTPR
modifications: full-length
Regarding B2, the “Average logFC” value is recorded as 1.47, the “M1-1 Log2 Median Normalized” value came out at 1.347, the “M1-2 Log2 Median Normalized” value was 0.087 and the “M2-1 Log2 Median Normalized” value was determined as 1.7985. Moreover, the “M2-2 Log2 Median Normalized” value is on record as 2.649 and the change entry is on record as “up”.

B3: Q3UQ28 (protein, UniProt Q3UQ28 1-1475, looked up)
chain: MAVRPTRRCLLALLLCFAWWAMAVVASKQGAGCPSRCLCFRTTVRCMHLLLEAVPAVAPQTSILDLRFNRIREIQPGAFRRLRSLNTLLLNNNQIKKIPNGAFEDLENLKYLYLYKNEIQSIDRQAFKGLASLEQLYLHFNQIETLDPESFQHLPKLERLFLHNNRITHLVPGTFSQLESMKRLRLDSNALHCDCEILWLADLLKTYAQSGNAQAAATCEYPRRIQGRSVATITPEELNCERPRITSEPQDADVTSGNTVYFTCRAEGNPKPEIIWLRNNNELSMKTDSRLNLLDDGTLMIQNTQEADEGVYQCMAKNVAGEAKTQEVTLRYLGSPARPTFVIQPQNTEVLVGESVTLECSATGHPLPQITWTRGDRTPLPIDPRVNITPSGGLYIQNVAQSDSGEYTCFASNSVDSIHATAFIIVQALPQFTVTPQSRVVIEGQTVDFQCAAKGHPQPVIAWTKGGSQLSVDRRHLVLSSGTLRISGVALHDQGQYECQAVNIIGSQKVVAHLTVQPRVTPVFASIPSDMTVEVGTNVQLPCSSQGEPEPAITWNKDGVQVTESGKFHISPEGFLTINDVGTADAGRYECVARNTIGYASVSMVLSVNVPDVSRNGDPYVATSIVEAIATVDRAINSTRTHLFDSRPRSPNDLLALFRYPRDPYTVGQARAGEIFERTLQLIQEHVQHGLMVDLNGTSYHYNDLVSPQYLSLIANLSGCTAHRRVNNCSDMCFHQKYRTHDGTCNNLQHPMWGASLTAFERLLKAVYENGFNTPRGINSQRQYNGHVLPMPRLVSTTLIGTEVITPDEQFTHMLMQWGQFLDHDLDSTVVALSQARFSDGQHCSSVCSNDPPCFSVMIPPNDPRVRSGARCMFFVRSSPVCGSGMTSLLMNSVYPREQINQLTSYIDASNVYGSTDHEARSIRDLASHRGLLRQGIVQRSGKPLLPFATGPPTECMRDENESPIPCFLAGDHRANEQLGLTSMHTLWFREHNRIAAELLKLNPHWDGDTVYHETRKIVGAEIQHITYRHWLPKILGEVGMKMLGEYRGYDPSVNAGIFNAFATAAFRFGHTLINPLLYRLDENFEPIPQGHVPLHKAFFSPFRIVNEGGIDPLLRGLFGVAGKMRIPSQLLNTELTERLFSMAHTVALDLAAINIQRGRDHGIPPYHDYRVYCNLSAAYTFEDLKNEIKSPVIREKLQRLYGSTLNIDLFPALMVEDLVPGSRLGPTLMCLLSTQFRRLRDGDRLWYENPGVFSPAQLTQLKQTSLARILCDNSDNITRVQQDVFRVAEFPHGYSSCEDIPRVDLRVWQDCCEDCRTRGQFNAFSYHFRGRRSLEFSYEDDKPTKRARWRKALSVKHGKHLSNATSATHEHLEGPATNDLKEFVLEMQKIITDLRKQINSLESRLSTTECVDDSGESHGGNTKWKKDPCTVCECKNGQITCFVEACQPAACPQPVKVEGACCPVCLKNTAEEKP
modifications: full-length
As for B3, the “Average logFC” value is on record as 1.294, the “M1-1 Log2 Median Normalized” value amounted to 1.157, the “M1-2 Log2 Median Normalized” value stood at 1.486 and the “M2-1 Log2 Median Normalized” value is 1.3875. The “M2-2 Log2 Median Normalized” value came out at 1.146 and the change result was “up”.

B4: Q3UGF1 (protein, UniProt Q3UGF1 1-1341, looked up)
chain: MKRVFSLLEKSWLGAPIQFAWQKSSGNYLAVTGADYIVKIFDRHGQKRSEISLPGNCVTMDWDKDGDILAVIAEKSSCIYLWDANTNKTSQLDNGMRDQMSFLLWSKIGSFLAVGTIKGNLLIYNHQTSRKIPVLGKHTKKITCGCWNSENLLALGGEDKMITVSNQEGDTIRQTPVKSEPSDIKFSMSKTDERISSAENTISAVVGKKMLFLFHLNEPDNPVDLEFQQAYGNIVCYSWYGDGYIMIGFSRGTFLAISTHFPEVGQEIFKARDHKDNLTSVALSQTLNKAATCGDNCIKIHDLTELRDMYAIINLDDENKGLGTLSWTDDGQLLALSTQRGSLHVFLTKLPILGDACHTRIAYLTSLLEVTVANLIEGEPPITVSVDVEPTFVAVGLYHLAVGMNNRAWFYVLGENVVKKLKDVEYLGTVASICLHSDYAAALFEGKIQLHLIENEMLDAQEERETRLFPAVDDKCRILCHALTSDFLIYGTDTGIIHYFFIEDWQFVNDYRHPVGVKKLFPDPNGTRLVFIDEKSDGFVYCPVNDATYEIPDFSPTIKGVLWENWPMDKGVFIAYDDDKVYTYAFHKDTIQGSKVILAGSTKLPFSHKPLLLYNGELTCQTQSGKINSIYLSTHSFLGSMKDTEPTDLRQMLTQTLLLKRFSDAWDICKMLNDRTSWSELAKACLHHMEVEFAIRVSRTMGDVGTVMSLEQIKGIEDYNLLAGHLAMFTNDFNLAQDLYLASNCPVAALEMRRDLQHWDSALQLAKRLAPDQIPFISKEYAIQLEFTGDYVNALAHYEKGITGDNKEHDEVCLAGVAQMSIRMGDIRRGANQALKHPSRVLKRDCGAILENMKQFSEAAQLYEKGQYYDRAASVYIRCKNWAKVGELLPHVSSPKIHLQYAKAKEADGRYKEAVVAYENAKQWNSVIRIYLDHLNNPEKAVSIVRETQSLDGAKMVARFFLQLGDYGSAIQFLVLSKCNNEAFTLAQQHNKMEIYADIIGAEDTTNEDYQSIALYFEGEKRHFQAGKFFLLCGQYSRALKHFLKCPSSEDNVAIEMAIETVGQAKDELLTNQLIDHLMGESDGMPKDAKYLFRLYMALKQYREAARTAIIIAREEQSAGNYRNAHDVLFSMYAELKAQKIKIPSEMATNLMILHSYILVKIHVKSGDHMKGARMLIRVANNISKFPSHIVPILTSTVIECHRAGLKNSAFSFAAMLMRPEYRNKIDAKYKKKIEAMVRRPDTSETEEATTPCPFCQFLLPECELLCPGCKNNIPYCIATGRHMLKDDWTMCPHCGFPALYSEFKILLNSESTCPMCSERLNSSQLKKITDCSQYLRTEME
modifications: full-length
In the case of B4, the “Average logFC” value is −1.153, the “M1-1 Log2 Median Normalized” value is reported as −0.199, the “M1-2 Log2 Median Normalized” value was −0.895 and the “M2-1 Log2 Median Normalized” value is −1.3115. The “M2-2 Log2 Median Normalized” value is given as −2.206 and the change entry is listed as “down”.

The values are drawn from patent US11994512B2, “Single-cell genomic methods to generate ex vivo cell systems that recapitulate in vivo biology with improved fidelity” (Massachusetts Institute of Technology, priority 2018, dated 2024).
